In the supplement of paper PMC10567573:

B1: ALDH8A1 (parent)
chain: WSSRSPQERSRVLNQVADLLEQSL

Variants of: B1
Assay: protein stability index of a GFP-peptide fusion (GPS, HEK-293T) (PSI 1-6); higher = more stable
Conditions: c terminus: a fixed tail appended
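Note: lentivirally expressed fusions sorted by FACS into six bins by GFP to DsRed ratio, PSI derived from sequencing read proportions per bin multiplied by bin number.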

Protein stability index: each site, then its substitutions
N14: T 2.82, C 2.21, S 2.58, L 1.62, P 3.21, A 2.56, D 2.28, E 3.24, Y 4.15, W 1.95, R 3.47, G 2.38, V 2.1, Q 2.41, F 1.26, I 2.02, K 1.97, M 1.79, H 2.17
V16: L 2.24, I 2, E 4.6, P 3.62, S 3.99, H 3.55, Q 4.62, R 3.9, M 2.7, G 4.12, A 3.86, Y 2.29, F 1.92, T 4.18, D 4.34, C 2.98, W 2.26, K 3.71, N 4.2
E8: H 2.71, F 2.01, W 2.36, I 2.68, S 2.16, A 2.31, T 2.46, G 2.17, V 2.23, D 2.87, Q 2.57, M 2.19, P 2.51, Y 2.71, C 1.6, N 2.23, R 2.88, K 2.04, L 2.1
R9: C 1.39, N 2.86, L 2.48, G 2.96, V 2.37, M 2.16, A 2.59, E 3.38, I 2.44, D 3.25, K 2.83, S 2.87, H 2.77, P 3.37, T 2.23, Y 2.21, F 2.56, W 2.22, Q 2.24
Q15: R 2.85, P 3.13, G 2.66, M 1.67, W 1.79, Y 1.81, H 2.13, N 3.22, I 2.07, D 3.31, C 1.81, V 1.75, L 2.36, E 3.03, A 1.51, K 2.13, F 1.54, S 2.74, T 2.59
L13: N 3.54, R 3.03, E 3.49, P 4.09, S 3.49, V 3.13, I 3.06, Y 2.6, W 2.55, D 3.81, T 3.5, Q 3.85, C 3.11, K 3.53, F 2.4, A 2.59, H 2.73, G 3.46, M 2.63
D18: G 2.76, S 2.23, V 1.92, W 1.37, A 1.98, P 3.02, I 1.76, L 1.86, T 2.02, Y 1.81, Q 1.59, N 2.22, K 1.47, H 2.2, R 2.34, F 1.48, M 2.17, C 2.03
S2: T 2.46, E 2.9, G 2.5, L 1.8, M 2.51, Q 2.17, A 1.99, I 1.78, D 2.8, W 1.92, P 2.92, N 2.78, K 2.48, Y 2.65, R 2.81, V 2.76, C 1.87, F 2.81, H 2.56
V12: L 2.06, H 3.05, G 3.48, T 3.47, C 2.35, M 2.31, A 3.11, N 3.99, Y 2.74, F 2.12, E 3.88, Q 3.45, S 3.78, I 1.98, D 3.85, K 3.07, P 4.23, R 2.71, W 1.73
Q7: V 2.53, W 2.37, H 2.31, E 2.76, D 2.96, M 2.23, A 2.38, S 2.21, L 1.91, T 2.15, F 1.77, K 2.61, P 2.9, R 2.62, C 2.24, G 2.7, N 2.81, Y 1.79, I 2.42
S3: M 2.27, Y 2.25, W 1.8, P 2.54, T 2.64, L 1.98, A 1.98, K 2.53, D 2.77, N 2.35, V 2.78, G 1.82, Q 2.52, H 2.52, E 3.5, C 2.26, I 2.2, F 1.88, R 2.28
S5: T 2.57, M 2.54, H 2.14, R 2.87, Y 1.6, C 2.56, W 1.59, V 2.81, G 2.05, E 2.88, L 2.74, K 2.52, P 2.57, F 1.99, A 2.62, N 2.43, I 2.4, Q 3.01, D 2.85
R4: C 1.68, N 2.61, H 2.71, S 2.44, F 1.82, Y 2.09, G 2.52, E 2.97, Q 3.04, A 2.18, M 2.22, I 2.64, T 2.62, K 2.49, V 2.02, P 2.64, W 2.68, D 2.79, L 2.03
P6: Q 2.85, V 2.39, S 2.8, N 2.6, T 3.1, K 2.42, C 2.19, D 3.19, F 1.84, M 1.99, I 2.44, E 3.07, A 2.13, Y 1.98, L 2.17, R 2.31, W 2.9, H 2.73, G 2.85
A17: V 2.69, D 3.87, P 3.53, Q 2.5, G 3.47, S 3.02, C 2.34, F 2.58, W 2.33, K 3.17, L 1.48, I 2.42, T 3.1, Y 2.15, R 1.9, E 3.88, N 3.3, H 2.54, M 1.85
W1: R 3.52, V 3.11, K 3.18, H 3.56, M 3.06, S 3.69, I 2.69, T 3.39, P 3.02, Y 2.68, L 2.91, N 3.61, Q 3.28
S10: C 2.36, N 2.29, G 3.8, E 3.11, H 2.58, W 2.82, V 2.05, Q 2.32, F 1.24, K 1.99, D 3.14, T 1.81, Y 2.37, L 2.25, A 2.41, P 2.49, M 2.45, R 2.95
R11: M 1.55, E 3.27, T 2.48, F 2.43, G 2.91, A 3.4, S 2.74, V 2.68, L 2.15, I 2.21, W 1.86, K 1.99, Y 2.22, N 2.48, Q 2.38, H 1.89, P 2.58, D 3.37, C 2.18
